Molecular target: T1, human NKG2D (human, UniProt P26718 1-216)
T1 construct: whole, on cells; also called hNKG2D; expressed on CHO-K1/hNKG2D-11 cells
T1 sequence (looked up): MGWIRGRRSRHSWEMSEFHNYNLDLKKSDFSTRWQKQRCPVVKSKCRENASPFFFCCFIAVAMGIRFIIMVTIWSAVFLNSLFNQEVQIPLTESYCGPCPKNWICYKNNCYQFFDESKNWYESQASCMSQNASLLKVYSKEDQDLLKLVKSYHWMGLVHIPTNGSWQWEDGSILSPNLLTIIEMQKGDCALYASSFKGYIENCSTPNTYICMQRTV
Test: flow cytometry on CHO-K1/hNKG2D-11 cells, detected with anti-human IgG (Fc)-FITC
Experimental: The human NKG2D-expressing CHO-K1 cell strain CHO-K1/hNKG2D-11 obtained in Example 7 was washed twice with PBS/1% FBS and suspended in 50 μl PBS/1% FBS containing 10 μl concentrate of the culture supernatant of the CSP2-Fc-expressing COS7 cells obtained in Example 6. The suspension was reacted at 0° C. for 60 minutes for binding them, then washed twice with 200 μl PBS/1% FBS, and suspended in 50 μl PBS/1% FBS containing 1 μl anti-human IgG (Fc)-FITC conjugate (Caltag). The suspension was reacted at 0° C. for 60 minutes for labeling, then washed twice with 200 μl PBS/1% FBS, and suspended again in 600 μl PBS/1% FBS. When the suspension was analyzed with a flow cytometer FACS Vantage (Becton Dickinson), cells with high intensity of FITC fluorescence were recognized, and the evident binding of CSP2-Fc protein to human NKG2D expressed on the surface of CHO-K1 cells was observed (FIG. 2A).

binding result: binds
B1: CSP2-Fc protein (fusion protein of CSP2 protein with human IgG Fc region) (Fc fusion)
chain: HSLCFNFTIKSLSRPGQPWCEAQVFLNKNLFLQYNSDNNMVKPLGLLGKKVNATSTWGELTQTLGEVGRDLRMLLCDIKPQIKTSDPSTLQVEMFCQREAERCTGASWQFAINGEKSLLFDAMNMTWTVINHEASKIKETWKKDRGLEKYFRKLSKGDCDHWLREFLGHWEAMPEPTVSPVNASDIHWSSS
notes: Used as a 100-fold concentrate of the culture supernatant of transfected COS7 cells, not purified; The construct encodes CSP2 residues 1-221; not shown: human IgG Fc region, amplified by PCR from human spleen IgG Fc cDNA (Clontech); Subclass, limits and the residues encode

Reference: patent US20050074754A1 (published 2005)
